Laboratory results taken from a protein production outcome set (Wang et al. 2014).

Test: label from the status in PepcDB records
For “MFKLHILFALSAPQRIAFWVWRGLFVVALAAAGIGSTRAQSYSFRDYAQSDGLQGMSITGLVEDRRGVVWVATELALHRFERDRFIPVGQDQGLDARYTRALTLDHAGRLWVATANGVFVRNGEQFVQVLDHGKRIRADAGNVIAAYRTGVAVASNGALLALTPEADGHWQVQPLPVRTADGKLREPGTTLLADGQFLWVPCDGGVCRLDARGTVVEALSEADGVPARRWRVIFRERGGRLWLRGGGTIVSRAPGGARFTEHPANPENSFNTLSGSTTMVEDARGRMLTRSDHGLVRWEGTHWTDIGADQGLQLNALVGPLLLQSNGTLWLGTRGMGLQRVLGYDSIEHLTEAQGMPPAPTWTMQRLPNGMLAVGADGGASLLKRNATHAQPWLLEDGAVLSQALNITVAPDGAAWVSYYSGAIARRDPLTGVTSRVMDLPIAGYKLLFDKAGTVWIATPRGLVRGQAAPPYALAPDPAMEGKFIGDIDFDRQGRLWAATRDGLYRRNGTTWVKIPVRGSLPSQDMLQIDFAPNGEIWLSLRDTGLWHGRLQGDGSLLLQAVDDPLISRIMPYILRHDRKGRLWVGSSQGLDLYQNGHWSRITRAEGLLWDDMSSNAFLEDDDGSIWIGSSRGLSHLRDPQRLFAAQPLRVDIAEVRRGAQIVHSGASIAWSETPLEIELSTPGVEGGANRISFRYRVQARWTTSSLSHLTYPLLPPGNYTLEVQALDAYQRSASPIARFQFVIRPPWWRSIAAIAGYLLLAVVAVIALLRWRTAKLLRRKHELEQLVAERTAELEQDKRDLEAARAELSLKATHDELTGLLNRAGILAALREMLLHAARSGRPLAVVLIDLDHFKLVNDQHGHLAGDAVLAGVGHRMDTLVRGDDRIGRYGGEELLALLPGLTPGATHRLDAMHRGICGDYPVDDGWLHVTCSIGVAWFQAGETLEQLLARADAALYRAKRSGRNRIDYDHVPLDRLGQVLPLDPQQRE”, the protein production was “failed”.
With “MFKNLIWLKEVDSTQERLKEWNVSYGTALVADRQTKGRGRLGRKWLSQEGGLYFSFLLNPKEFENLLQLPLVLGLSVSEALEEITEIPFSLKWPNDVYFQEKKVSGVLCELSKDKLIVGIGINVNQREIPEEIKDRATTLYEITGKDWDRKEVLLKVLKRISENLKKFKEKSFKEFKGKIESKMLYLGEEVKLLGEGKITGKLVGLSEKGGALILTEEGIKEILSGEFSLRRS” the protein production was “not failed”.
For “MFKNNDFIYIEYTAKIKDTGEIVDTTNEEEAKKANIYDETRNYGPRLVILGENRLIKGLEEALYNFNLNEEKTIEIPPEKAYGERDNSKIKIVPLGELRRQGITAVPNRVLRLSDGSLAVIRSVSGGRVVLDLNHPLAGRTLVYNVKVVKVLNNAKDKIMALIERRFSSKYANGFNVELDDGKKSVRITIPKDLYLVEDLQINVYSLAYEIVNYVLADYTVEVLQQYNKSTFSSS”, the protein production was “failed”.
For “MFKNVKKSVTRTIASAMLLILLLSVATTGFAIFTLASSLNDAEAVNVAGSMRMQSYRLAHDIQIRSVDYSSHIDAFEHSIYSSSMKALQHWSVPEDITHDYYRLIMRWHELKSVLRGEDPSQYQLLVAGFVQQIDDFVFKLQNFSEQKLINLAWIGGLGLGGILCASMFVVHFIRLEVVRPLRALVFASERIKNRSFDINLAVSSDNEMGILTRTFNRMATDLGKLYRGLEQAVDEKTRKLQHANQSLEVLYDSSKELTASRINQDNFQAILKHIASLEGIKAVKLEIEQLGEPNWILTEGEECCHDCDDECHAEPLTLDGEHLGSLYWKAGLPCPNETLIDNFVQILSRAVYYNRAQRQAEQILLMEERATIARELHDSLAQALSYLKIQVALLKRSVKNLPDEKAIAQANQVIAELDTGLSAAYTQLRELLTTFRLTIKEGSFGQALQEMVETLNEQTTAEITLKNRLSSTELDAHQQVHLLQLIREAALNAIKHAQADHIHIQCLDCDGKVTVTVSDDGVGFEHQDEKINHYGMTIMQERAARLHADLQIEASINKGCTVKLEFQHSKEVNFDSV”, the protein production was “failed”.
For “MFLNRKVELSLLENLHAEGKPKLILLYGKRRVGKTELLNEFARRHRALYLVARQEAYEGQLKKMSSEIAEFFDDDVLRHSPFQNYDALFIYLAQKETPVLFDEFPYLVEANRDLPSILQEYWDRYFSKKKTFLVLCGSSIAMMESLLGYKSPLYGRRTEQILLEPLKFREACEFFPQLEQEDKVLAYAVLGGTPAYLLEFDYGKPLLENIRDRILQKNTFLYQDTMFVLQQELTEPRVYYSIINSIAKGNTRLGEIMNDTGLEKSKITKYLSVLKDLHIIERRVPVTEKSPESSKKGIYLLKDNYFKFWFRFVFENAEYIEQGRQEKLIGDKISPVLNNFAGFAYEEIVLEYLKSSPGFPDYIFGRWWDKEEEIDVVGLDSSQNRIIFGEVKWKALTEKEARQTLNQLVEKSVEVKWGENLKSGEIQEGPEKKYMLVGKKVGGKKRLLGDGYLVLELDDLVEN”, the protein production was “failed”.
With “MFLNYFALGVLIFVFLVIFYGIIAIHDIPYLIAKKRNHPHADAIHTAGWVSLFTLHVIWPFLWIWATLYQPERGWGMQSHVASQEKATDPEIAALSDRISRLEHQLAAEKKTDYSTFPEI” the protein production was “failed”.
For “MFMREIELRGHIIDSLILPKVFDKILDMGGDYKVLEFEIGKRKTDPSYAKILVIGRDERHVDEILNELRDLGAEIPEIEEVELQPAEKDMVLPEGFYSTTNHKTFIRFKGKWIEVENQKMDGAIVVYPDEMRAEVKTIRNIKKGDLVVVGHKGVRVIPPEKPREGGGLFEFMKSDASSEKPKETIIRRIAKEMYEIREKYRKTGKGGIVVVGGPAIIHTGAGWALAKLIRMGYVQALFAGNALATHDIESVLYGTSLGVDLKTGKSVPGGHSHHLRAINTIMRAGSIKDAVEQGILKEGVMYECIKNNIPYVLAGSIRDDGPLPDVITDVVKAQEKMRELLKGKDMVLMLSTMLHSIATGNLLPSWVKTICVDINPAVVTKLMDRGTSQALGIVTDVGVFLPMLVEELEKLEKEKEKSEKREELEHHHHHH”, the protein production was “not failed”.
In the case of “MFNIADGGFTELHTLWLNEEKAAVPGREYEIWHRRHDYWLLAGIVTHGYGRWQDIQNDIRFAIINEPFKMDVGKGNFLEIKNKFLARRFKLLEQALVIEEQLRRAAYLNLAQDPSHPAMSLNARFAEVECLAESHQHLSKESLAGNKPANAVLHKVLNQLEELLSDMKSDVSRLPATLARIPPVAQRLQMSERSILSRLA”, the protein production is reported as “failed”.
For “MFNPNVAVKNIVTQNGADSIISLIARILMAYIFLVAGWGKITAYSATVGYMEAMGVPGALLPLTILVEFGGGLALLFGFQARFAAFGLGIFSLLTAFIFHEGTDQAQAINFMKNFAMAGGLFFLMLHGAGKISLDAAIEK”, the protein production was “failed”.
In the case of “MFPILLLAFIFVPIIEIGLFIQVGGFLGLWPTIALVLITAFVGASLVRSQGIQTLMSVQGRLEQGEIPAQQIFEGVMLAVAGVLLLTPGFMTDALGMVVLLPAPRAAIAKYLMSKMVVKTMHGGGFQGGFSNQGPFEQDPFHRDPFDSRSDNGNTFEGEYERKDDDDRNKLN”, the protein production is reported as “failed”.
In the case of “MFPLNFHYEDVSRQDPLLKPNHANVMEVPGSCEIRVVPKAPYNFIIKNGKLAMEIPRGQKFIQTQRGSTGKSFRSNPFLGSNKDKGYVSDLARQSTLRGHGMSNFSVRISTVMSLLDFPVEIRKNSIQFSMETEFCEFSPELEDHFEIFEHIRGFNVTIITSANTQDETLPLWSGFLQKDEGETQ”, the protein production is reported as “failed”.
With “MFPNSILGRPPFTPTHQQHNNFFALSPTLYSHQQLIDAQFNFQNVDLSRAVSLQPLTYGTVSPIQTSTSPLFRGRKRISDEKAFRLDGKRQRFHSPHQEPTIINQLVPLSGDRRYSMPPLFHTHYVPEIVRCVPPLREIPLLEPREITLPEAKDKLSQQILELFETCQQQASDLKKKELCRAQLQREIQLLFPQSRLFLVGSSLNGFGARSSDGDLCLVVKEEPCFFQVNQKTEARHILTLVHKHFCTRLSGYIERPQLIRAKVPIVKFRDKVSCVEFDLNVNNTVGIRNTFLLRTYAYLENRVRPLVLVIKKWASHHEINDASRGTLSSYSLVLMVLHYLQTLPEPILPSLQKIYPESFSTSVQLHLVHHAPCNVPPYLSKNESSLGDLLLGFLKYYATEFDWNTQMISVREAKAIPRPDDMEWRNKYICVEEPFDGTNTARAVHEKQKFDMIKDQFLKSWQRLKNKRDLNSVLPLRAATLKR” the protein production was “failed”.
For “MFQAIQQKLLLMPSGKKNLLSLGMKTAITRVFSALFAFLLTLIVSRTTDASTSGQFFFLFNLVSLTAIISQRGFDVALVRFNAIAFSNGDIQQQSDNYWTALTRSITFCFMAAVTLFVGFYLFPNQLNQTNSPIVAITLALMCVPFLVLGQTNSRVLQASKMVVPSLFALQLGVSVLMVLFIMGLSTLHLQNINSLMTALLLASLIVSIASTTKWFSSGQYQKPTPTTNIELISSAKQVWIGSIFTNILQWGSIVIAGFFISTTELGLLAAAQRTSLLIGFVLITINFVVAPMFASLFKEGKLDKLRNLSRWACRANIGAALLPVLVCTLFPEFVMQLFGDEFLAAAPLLVVLSLGQLVNIATGSVGFLLLMSGHERTMKYITICSGTISIALLVFLSQSYGVLGAAWAMAIGMAIQNLAALYFVKRYLGFFPVG”, the protein production was “failed”.
In the case of “MFQALIDVVLPVFLVIGAGYCTTFAGYFKPEHIDGVMRFTQGFAIPCLLFRAIANLDLNAGFDPALLASFYMAAFLCFTAGLLGARLLFNRDWEDSVAIGFCCLFSNSVLLGLAITERAYGPENLVGNYAIIAIHSPFCYALGITTMEVIRNRGRGGRKMVTSVLNAMFRNVLILGIALGFIVNLSGISLPQIADDALSLIIRAALPGALFALGGVLVQYRPEGDTRVIVYICAISLLLHPGLVWLFGSALALPQDLFRSGVLNAAMAPGFNAYIFANIYGRAKRVAASSVLVATAASILTVWMWLMLLG”, the protein production is reported as “failed”.
With “MFQISFMSKQLQDLIDRELMNASSLVKKGKYEKALEKLNKAERLAEKAKNSELFCRVLLHKGEILDSMEKSREALLQYEKALEISLRFFMSDPQDSSSQRCLYNSIDLMENILNKIDDVSVAEKSYERTNKYFGKVIGTYEKLIAKYPENHYYLINYIITVKNLRGYLLNVGKSEKQIQLINSTLETFKEILNIQPENPEIFEKLDEFVKDLGEEFLDDELFENAKKIYEHLQGIYRGLLENYPDNELVLHYLIVSYGYFGNLYSRQRYLDRIEETYRPALSIVEDNLRKNPENTAFLENLGKIHEKIGVTYSEAKDQEKANSYYEKALANFVNLKGKASEDPDYQAELGKIFANLGERFETINRIENAAKSYLHKIEIYDSLFEEDPEDEDVKMDNIDTLMHIGNLYAEAGYTEPAKKYYEKAIEGYERLLSENPESTDFEIGISDILTALGDMYAKVGEEETEPEDAELETAREYYEKALKLNEKEFERYPDDLTCQDELIRTLGKLGDSFAVQDRYEDVIPFYRRIVEIKEQVVRDDPRRWLAVNSLTNFLYQLGSYYGKIEEVELERKQYSKAAELYSRALHDKNLQHQIKEVLAVEVQSHGTALLKSGKYNAAKEALDLALEFFENLYEEDPEDEENYPFICEALFQNGNLQRALENFEEAAKSFDSLLPIVEKLLESNPESPEARENAGVTYTNVGEVYSLNGEYEKSKQAFERALTINAVLLEEEPDNSLYKINQAQTFEKYAKLLSKLGRSEEAEDYSTKSEEIYRKLAEEDSDEGDINE” the protein production was “failed”.
For “MFRAMHLSLLGCLLGTSGCHGLPPAPPAPSAAVGNYGEVIDYLQRHIRREMERQDVPGLALALVDDQQLVWARGFGYADRQHRINASEHTAFHAGDLSKLLIASATLQLAERGQLSLDAPLQDTLREFYVRSRFHADQSEADRAITFRRLLSHQSGLPGEHLPPLFGERPNSLGQLPAKVSGVWLSNPPGTQVAHSNLGYELVGAAIERNTGKHFEQHMREHLLDPLQMTRSSFARNALPQAQRAHGYSGGGRPGSASDLPVNDLWSSPVDLSRFVRMLFANGRHKERQLLRKHSVEEMFRQQNAGNALDFDCQVGLAWFLSPCGSAPLEGGIRHYEYASATPGFSAHLILLPEQRLAAIVMSNADDSGSLTASLARQAASLMLQVKQGARRPAVQPTPARAPALEVPSPEDRRQLYGRYATRQGQIRLYERRGRLYADFGEQRVELLRDTSGWLQMRKRLLGFWPVGVDSAGQLQLDVVSYGQRRILVSRRHDQTAYLGERIEPTSLPQAWTEAVGTYRVASTGRHSYLNGLSIRIEDGFLLVRGQAGGTRSGEFILQPIDSAHAVLAGSGQGLGDTFSRDFDGLNALGYRFAQQDTKARPWLQRKESP”, the protein production was “failed”.
